Results as given in publication PMC2695410 (2009).

Target: Calmodulin (Bos taurus, UniProt P62157)
Experiment: dansyl-calmodulin fluorescence titration

| Kd | Binder |
| --- | --- |
| 790 nM | RAYLLVGGLWTAISKALFAEF (dansyl-calmodulin, Ca2+) [Aquaporin 6 N-terminal peptide (Nter) N-terminal calmodulin binding site, 21-aa peptide] |
| 1780 nM | WASMLACRLWKAISRALFAEF (dansyl-calmodulin, Ca2+) [Aquaporin 6 N-terminal peptide (h6 Nter) N-terminal calmodulin binding site, 21-aa peptide] |
